Target: F-actin (filamentous actin), actin purified from chicken breast (Gallus gallus) (chicken (Gallus gallus)), P68139
Assay: co-sedimentation
Conditions: remark: other sources report otherwise

B1: Human UTRN-ABD (utrophin actin-binding domain, amino acids 1-261), wild type, P46939 1-261 (domain or fragment)
chain: MAKYGEHEASPDNGQNEFSDIIKSRSDEHNDVQKKTFTKWINARFSKSGKPPINDMFTDLKDGRKLLDLLEGLTGTSLPKERGSTRVHALNNVNRVLQVLHQNNVELVNIGGTDIVDGNHKLTLGLLWSIILHWQVKDVMKDVMSDLQQTNSEKILLSWVRQTTRPYSQVNVLNFTTSWTDGLAFNAVLHRHKPDLFSWDKVVKMSPIERLEHAFSKAQTYLGIEKLLDPEDVAVQLPDKKSIIMYLTSLFEVLPQQVTID
Kd: 1800 nM

— article PMC7360965
